Measured values taken from PMC12748351, “The TDG protein environment connects active DNA demethylation with chromatin and RNA biology”.

Target: TDG (recombinant murine TDG) (Mus musculus, UniProt P56581 1-421)
Assay: competition; competes TDG-Sra1 and TDG-Neat1 complexes; higher affinity than lncRNA; BER buffer: 50 mM HEPES pH 8.0, 70 mM KCl, 0.5 mg/mL BSA, 7 mM MgCl2, 1 mM DTT, RNase inhibitor; RT, 15 min (buffer stated for lncRNA EMSA; 60 bp EMSA: 2 µM TDG, 2 µM substrate, RT 15 min)
Settings: protein: recombinant; blunt, one G·U mismatch

Sequence of TDG (recombinant murine TDG) (P56581 whole entry): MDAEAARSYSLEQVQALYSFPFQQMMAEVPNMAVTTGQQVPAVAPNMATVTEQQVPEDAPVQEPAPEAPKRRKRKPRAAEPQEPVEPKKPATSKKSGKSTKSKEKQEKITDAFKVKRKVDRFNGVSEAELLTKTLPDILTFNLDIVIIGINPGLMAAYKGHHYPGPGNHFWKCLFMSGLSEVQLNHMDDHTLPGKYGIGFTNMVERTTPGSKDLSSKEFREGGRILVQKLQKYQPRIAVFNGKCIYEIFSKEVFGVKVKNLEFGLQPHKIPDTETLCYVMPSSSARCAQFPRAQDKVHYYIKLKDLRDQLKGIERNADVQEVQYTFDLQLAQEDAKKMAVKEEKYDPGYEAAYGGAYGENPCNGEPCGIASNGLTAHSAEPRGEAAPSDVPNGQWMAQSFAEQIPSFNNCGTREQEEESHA

B1: Subs60 G·U (unlabeled competitor) (dsDNA)
DNA 1: TAGACATTGCCCTCGAGGTACCATGGATCCGATGTCGACCTCAAACCTAGACGAATTCCG
DNA 2: CGGAATTCGTCTAGGTTTGAGGTUGACATCGGATCCATGGTACCTCGAGGGCAATGTCTA
modifications: dU at position 24 of strand 2
**Q.** Does B1 bind?
**A.** binds
